The values below come from the supplement of paper PMC5998384.

Data set [1] deals with HeLa Kyoto. The experiment in a line: solubility change mitosis vs G1/S (difference of NP-40 vs SDS log2 ratios) (log2 ratio difference); higher = more soluble in mitosis.
The test system of data set [2] is HeLa Kyoto. Kind of data set: melting temperature (median over replicates), in situ; higher = more thermally stable.
In data set [3] the test system is HeLa Kyoto. The experiment in a line: thermal stability score vs G1/S (z-score of summed log2 fold changes over temperatures); higher = more thermally stable than in G1/S.
Setting [4] is: cell cycle stage: early G1 (4.5 h after nocodazole release).
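For melting temperature (median over replicates), in situ in this document: HeLa Kyoto cells synchronized by double thymidine or nocodazole block, proteins quantified by TMT10plex mass spectrometry, three independent biological replicates.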
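For solubility change mitosis vs G1/S (difference of NP-40 vs SDS log2 ratios) in this document: synchronized HeLa Kyoto cells (double thymidine block for G1/S, nocodazole release for mitosis), protein amounts in NP-40 versus SDS lysates quantified by mass spectrometry, three biological replicates.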
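For thermal stability score vs G1/S (z-score of summed log2 fold changes over temperatures) in this document: synchronized HeLa Kyoto cells, proteins quantified by TMT10plex mass spectrometry, three biological replicates, mitosis taken 0.5 h after nocodazole release, G1/S directly after double thymidine block.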

As to ACTA1, the “solubility change mitosis (log2)” value in the data set with HeLa Kyoto [1] was -0.193.
For the substance AJUBA, the “solubility change mitosis (log2)” value in the data set with HeLa Kyoto [1] is -0.0418.
On the same count and under the same terms, the result for AK2 reads 0.09.
Take BCKDK: the “solubility change mitosis (log2)” value in the data set on HeLa Kyoto [1] is -0.0559.
As to CHAF1B, the “solubility change mitosis (log2)” value with HeLa Kyoto [1] came to 0.105.
Still for that read-out and setting: with CNOT11 the figure was -0.0916; with COLGALT1, 0.0451.
Regarding DNMT3B, the “solubility change mitosis (log2)” value in the data set with HeLa Kyoto [1] was determined as 0.67.
On the same count and under the same terms, with DPP7 the figure was 0.00739; with DPYSL2, -0.147.
Take DYRK1A: in the data set with HeLa Kyoto [1], the “solubility change mitosis (log2)” value is 0.0078.
Still for that read-out and setting: the result for EI24 reads -0.07; that for EMG1, 0.19; that for ETF1, -0.146.
Still for that read-out and setting: the result for FNTA reads -0.132; that for GAA, -0.231; that for GADD45GIP1, 0.258.
Same read-out and setting: with GORASP2 the figure was -0.317; with HPCAL1, -0.0209.
On to HSPG2, for which, in the data set on HeLa Kyoto [1], the “solubility change mitosis (log2)” value was -0.021.
Same read-out and setting: the result for IFI30 reads 0.347.
For LARP1, in the data set on HeLa Kyoto [1], the “solubility change mitosis (log2)” value was found to be 0.306.
In the case of LRPPRC, the “solubility change mitosis (log2)” value in the data set with HeLa Kyoto [1] was -0.118.
Same read-out and setting: the result for MALSU1 reads -0.0468.
In the case of “MAVAAAAAAGPVFWRRLLGLLPGRPGLAALLGRLSDRLGRNRDRQRRRSPWLLLAPLLSPAVPQVTSPPCCLCPEGVHRFQWIRNLVPEFGVSSSHVRVLSSPAEFFELMKGQIRVAKRRVVMASLYLGTGPLEQELVDCLESTLEKSLQAKFPSNLKVSILLDFTRGSRGRKNSRTMLLPLLRRFPEQVRVSLFHTPHLRGLLRLLIPERFNETIGLQHIKVYLFDNSVILSGANLSDSYFTNRQDRYVFLQDCAEIADFFTELVDAVGDVSLQLQGDDTVQVVDGMVHPYKGDRAEYCKAANKRVMDVINSARTRQQMLHAQTFHSNSLLTQEDAAAAGDRRPAPDTWIYPLIQMKPFEIQIDEIVTETLLTEAERGAKVYLTTGYFNLTQAYMDLVLGTRAEYQILLASPEVNGFFGAKGVAGAIPAAYVHIERQFFSEVCSLGQQERVQLQEYWRRGWTFHAKGLWLYLAGSSLPCLTLIGSPNFGYRSVHRDLEAQIAIVTENQALQQQLHQEQEQLYLRSGVVSSATFEQPSRQVKLWVKMVTPLIKNFF [PGS1]”, the melting temperature in the data set with HeLa Kyoto [2] (cell cycle stage: G1/S) and in the data set on HeLa Kyoto [2] (cell cycle stage: mitosis) was 53.2 °C each time. The thermal stability score in the data set with HeLa Kyoto [3] (setting [4]) was 0.0742; in the data set with HeLa Kyoto [3] (cell cycle stage: mitosis) it was -0.577.
For the substance MEAF6, the “solubility change mitosis (log2)” value in the data set with HeLa Kyoto [1] amounted to 0.685.
In the case of “MEHFDASLSTYFKALLGPRDTRVKGWFLLDNYIPTFICSVIYLLIVWLGPKYMRNKQPFSCRGILVVYNLGLTLLSLYMFCELVTGVWEGKYNFFCQGTRTAGESDMKIIRVLWWYYFSKLIEFMDTFFFILRKNNHQITVLHVYHHASMLNIWWFVMNWVPCGHSYFGATLNSFIHVLMYSYYGLSSVPSMRPYLWWKKYITQGQLLQFVLTIIQTSCGVIWPCTFPLGWLYFQIGYMISLIALFTNFYIQTYNKKGASRRKDHLKDHQNGSMAAVNGHTNSFSPLENNVKPRKLRKD [ELOVL5]”, the melting temperature with HeLa Kyoto [2] (cell cycle stage: G1/S) was 53.3 °C; with HeLa Kyoto [2] (cell cycle stage: mitosis), 53.7 °C. Further, the thermal stability score was -0.682 in the data set with HeLa Kyoto [3] (setting [4]) and -0.967 with HeLa Kyoto [3] (cell cycle stage: mitosis).
The corresponding values for “MGKVWKQQMYPQYATYYYPQYLQAKQSLVPAHPMAPPSPSTTSSNNNSSSSSNSGWDQLSKTNLYIRGLPPHTTDQDLVKLCQPYGKIVSTKAILDKTTNKCKGYGFVDFDSPAAAQKAVSALKASGVQAQMAKQQEQDPTNLYISNLPLSMDEQELENMLKPFGQVISTRILRDSSGTSRGVGFARMESTEKCEAVIGHFNGKFIKTPPGVSAPTEPLLCKFADGGQKKRQNPNKYIPNGRPWHREGEVRLAGMTLTYDPTTAAIQNGFYPSPYSIATNRMITQTSITPYIASPVSAYQVQSPSWMQPQPYILQHPGAVLTPSMEHTMSLQPASMISPLAQQMSHLSLGSTGTYMPATSAMQGAYLPQYAHMQTTAVPVEEASGQQQVAVETSNDHSPYTFQPNK [RBMS1]” are 53.4 °C, 52.4 °C, -0.758 and -1.24.
The corresponding values for “MISLTDTQKIGMGLTGFGVFFLFFGMILFFDKALLAIGNVLFVAGLAFVIGLERTFRFFFQKHKMKATGFFLGGVFVVLIGWPLIGMIFEIYGFFLLFRGFFPVVVGFIRRVPVLGSLLNLPGIRSFVDKVGESNNMV [GOLT1B]” are 59 °C, 54.6 °C, -3.12 and -4.7.
